T1: HuCDCP1-C (Homo sapiens, UniProt Q9H5V8)
T1 construct: made in house; host or cells: HEK-293T
T1 sequence (Q9H5V8 30-667): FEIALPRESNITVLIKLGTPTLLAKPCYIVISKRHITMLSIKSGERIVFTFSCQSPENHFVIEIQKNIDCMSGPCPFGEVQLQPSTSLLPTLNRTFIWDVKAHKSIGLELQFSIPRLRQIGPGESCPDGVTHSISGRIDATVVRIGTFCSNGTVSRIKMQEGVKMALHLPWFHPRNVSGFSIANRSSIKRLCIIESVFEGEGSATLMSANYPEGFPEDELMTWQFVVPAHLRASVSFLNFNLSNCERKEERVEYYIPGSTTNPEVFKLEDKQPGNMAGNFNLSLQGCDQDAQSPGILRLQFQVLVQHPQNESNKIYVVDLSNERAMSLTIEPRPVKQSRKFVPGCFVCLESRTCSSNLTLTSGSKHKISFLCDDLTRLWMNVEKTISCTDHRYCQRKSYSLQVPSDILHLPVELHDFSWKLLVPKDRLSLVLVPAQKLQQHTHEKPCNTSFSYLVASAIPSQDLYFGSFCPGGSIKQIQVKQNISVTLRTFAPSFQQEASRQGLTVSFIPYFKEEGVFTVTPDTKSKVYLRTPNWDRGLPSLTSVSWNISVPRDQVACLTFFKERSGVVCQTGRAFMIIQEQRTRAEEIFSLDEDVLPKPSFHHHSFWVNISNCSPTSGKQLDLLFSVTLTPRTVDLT

B1: 1CP-151: humanized anti-CDCP1 antibody produced by 8C9; VH SEQ ID NO: 343, VL SEQ ID NO: 354 (antibody, V domains shown)
VH: EVQLVESGGGLVQPGRSLRLSCTASGLTFTHYHMSWFRQAPGKGLEWVAIIRNKAYGYTTDYSASVRGRFTISRDDSKSILYLQMNSLKTEDTAVYYCVREGGYGYDGTFAYWGQGTLVTVSS
VL: DIQMTQSPSSLSASVGDRVTITCRASESVDNYGISFMNWFQQKPGQAPKLLIYAASNQGSGVPSRFSGSGSGTDFTLTISSMQPEDFATYYCQQSKEVPRTFGGGTKVEIK
modifications: humanized antibody 8C9 heavy chain variable region 01; humanized antibody 8C9 light chain variable region 01
B2: 1CP-118: humanized anti-CDCP1 antibody produced by 8E5; VH SEQ ID NO: 349, VL SEQ ID NO: 358 (antibody, V domains shown)
VH: QVQLVQSGSELKKPGESVKVSCKASGYTLTDFSMHWVRQAPGQGLEWMGWINTETGAPTYADDFKGRFVLSLDTSVSTAYLQISSLKSEDTAVYYCSRGRDYDPHFDYWGQGTLVTVSS
VL: EIVLTQSPATLSLSPGERATLSCRASQSISDFLHWYQQKPGQSPRLLIKYASQSISGIPARFSGSGSGSDFTLTISSVEPEDFAVYYCQSAHSFPYTFGQGTKLEIK
modifications: humanized antibody 8E5 heavy chain variable region 03; humanized antibody 8E5 light chain variable region 02
B3: 1CP-123: humanized anti-CDCP1 antibody produced by 8E5; VH SEQ ID NO: 350, VL SEQ ID NO: 359 (antibody, V domains shown)
VH: QVQLQQSGSELKKPGESVKLSCKASGYTLTDFSMHWVRQAPGQGLKWMGWINTETGAPTYADDFKGRFVFSLDTSVSMAYLQISSLKSEDTAVYYCSRGRDYDPHFDYWGQGTLVTVSS
VL: EIVLTQSPATLSLSPGERATLSCRASQSISDFLHWYQQKSGQSPRLLIKYASQSISGIPARFSGSGSGSDFTLTISSVEPEDFAVYYCQSAHSFPYTFGQGTKLEIK
modifications: humanized antibody 8E5 heavy chain variable region 04; humanized antibody 8E5 light chain variable region 03
B4: 1CP-122: humanized anti-CDCP1 antibody produced by 8E5; VH SEQ ID NO: 349, VL SEQ ID NO: 359 (antibody, V domains shown)
VH: QVQLVQSGSELKKPGESVKVSCKASGYTLTDFSMHWVRQAPGQGLEWMGWINTETGAPTYADDFKGRFVLSLDTSVSTAYLQISSLKSEDTAVYYCSRGRDYDPHFDYWGQGTLVTVSS
VL: EIVLTQSPATLSLSPGERATLSCRASQSISDFLHWYQQKSGQSPRLLIKYASQSISGIPARFSGSGSGSDFTLTISSVEPEDFAVYYCQSAHSFPYTFGQGTKLEIK
modifications: humanized antibody 8E5 heavy chain variable region 03; humanized antibody 8E5 light chain variable region 03
B5: 1CP-119: humanized anti-CDCP1 antibody produced by 8E5; VH SEQ ID NO: 350, VL SEQ ID NO: 358 (antibody, V domains shown)
VH: QVQLQQSGSELKKPGESVKLSCKASGYTLTDFSMHWVRQAPGQGLKWMGWINTETGAPTYADDFKGRFVFSLDTSVSMAYLQISSLKSEDTAVYYCSRGRDYDPHFDYWGQGTLVTVSS
VL: EIVLTQSPATLSLSPGERATLSCRASQSISDFLHWYQQKPGQSPRLLIKYASQSISGIPARFSGSGSGSDFTLTISSVEPEDFAVYYCQSAHSFPYTFGQGTKLEIK
modifications: humanized antibody 8E5 heavy chain variable region 04; humanized antibody 8E5 light chain variable region 02
B6: 1CP-120: humanized anti-CDCP1 antibody produced by 8E5; VH SEQ ID NO: 347, VL SEQ ID NO: 359 (antibody, V domains shown)
VH: QVQLVQSGSELKKPGASVKVSCKASGYTLTDFSMHWVRQAPGQGLEWMGWINTETGAPTYADDFKGRFVFSLDTSVSTAYLQISSLKAEDTAVYYCSRGRDYDPHFDYWGQGTLVTVSS
VL: EIVLTQSPATLSLSPGERATLSCRASQSISDFLHWYQQKSGQSPRLLIKYASQSISGIPARFSGSGSGSDFTLTISSVEPEDFAVYYCQSAHSFPYTFGQGTKLEIK
modifications: humanized antibody 8E5 heavy chain variable region 01; humanized antibody 8E5 light chain variable region 03
B7: 1CP-127: humanized anti-CDCP1 antibody produced by 3C11; VH SEQ ID NO: 342, VL SEQ ID NO: 351 (antibody, V domains shown)
VH: QVQLVQSGAEVKKPGASVKVSCKASGYNFISYWLHWVRQAPGQGLEWMGGIYPGNTDTTYNQKFKGRVTVTAVTSTSTVYMELSSLRSEDTAVYYCIRYDYDRGMDYWGQGTLVTVSS
VL: DIQMTQSPSSLSASVGDRVTITCRASEDIYYRLAWYQQKPGKAPKLLISGATALETGVPSRFSGSGSGKDYTFTISSLQPEDIATYYCQHYWNIPWTFGQGTKVEIK
modifications: humanized antibody 3C11 heavy chain variable region 04; humanized antibody 3C11 light chain variable region 01
B8: 1CP-132: humanized anti-CDCP1 antibody produced by 3C11; VH SEQ ID NO: 339, VL SEQ ID NO: 353 (antibody, V domains shown)
VH: QVQLVQSGAEVKKPGASVKVSCKASGYNFISYWLHWVRQAPGQGLEWMGGIYPGNTDTTYNQKFKGRVTMTRDTSTSTVYMELSSLRSEDTAVYYCIRYDYDRGMDYWGQGTLVTVSS
VL: DIQMTQSPSSLSASVGDRVTITCRASEDIYYRLAWYQQKPGNAPKLLISGATALETGVPSRFSGSGSGKDYTLTISSLQPEDIATYYCQHYWNIPWTFGQGTKVEIK
modifications: humanized antibody 3C11 heavy chain variable region 01; humanized antibody 3C11 light chain variable region 03
B9: 1CP-131: humanized anti-CDCP1 antibody produced by 3C11; VH SEQ ID NO: 342, VL SEQ ID NO: 352 (antibody, V domains shown)
VH: QVQLVQSGAEVKKPGASVKVSCKASGYNFISYWLHWVRQAPGQGLEWMGGIYPGNTDTTYNQKFKGRVTVTAVTSTSTVYMELSSLRSEDTAVYYCIRYDYDRGMDYWGQGTLVTVSS
VL: DIQMTQSPSSLSASVGDRVTITCRASEDIYYRLAWYQQKPGKAPKLLISGATALETGVPSRFSGSGSGKDYTLTISSLQPEDIATYYCQHYWNIPWTFGQGTKVEIK
modifications: humanized antibody 3C11 heavy chain variable region 04; humanized antibody 3C11 light chain variable region 02
B10: 1CP-135: humanized anti-CDCP1 antibody produced by 3C11; VH SEQ ID NO: 342, VL SEQ ID NO: 353 (antibody, V domains shown)
VH: QVQLVQSGAEVKKPGASVKVSCKASGYNFISYWLHWVRQAPGQGLEWMGGIYPGNTDTTYNQKFKGRVTVTAVTSTSTVYMELSSLRSEDTAVYYCIRYDYDRGMDYWGQGTLVTVSS
VL: DIQMTQSPSSLSASVGDRVTITCRASEDIYYRLAWYQQKPGNAPKLLISGATALETGVPSRFSGSGSGKDYTLTISSLQPEDIATYYCQHYWNIPWTFGQGTKVEIK
modifications: humanized antibody 3C11 heavy chain variable region 04; humanized antibody 3C11 light chain variable region 03
B11: 1CP-133: humanized anti-CDCP1 antibody produced by 3C11; VH SEQ ID NO: 340, VL SEQ ID NO: 353 (antibody, V domains shown)
VH: QVQLVQSGAEVKKPGASVKVSCKASGYNFISYWLHWVRQAPGQGLEWMGGIYPGNTDTTYNQKFKGRVTMTADTSTSTVYMELSSLRSEDTAVYYCIRYDYDRGMDYWGQGTLVTVSS
VL: DIQMTQSPSSLSASVGDRVTITCRASEDIYYRLAWYQQKPGNAPKLLISGATALETGVPSRFSGSGSGKDYTLTISSLQPEDIATYYCQHYWNIPWTFGQGTKVEIK
modifications: humanized antibody 3C11 heavy chain variable region 02; humanized antibody 3C11 light chain variable region 03

Each molecule was assayed against T1, HuCDCP1-C (assay: Caterra affinity of humanized anti-CDCP1 antibodies). Conditions: HuCDCP1-C 2 μg/ml immobilized.
Assay type: binding
Protocol: The humanized anti-CDCP1 antibodies obtained from Example 11 were subjected to gene cloning, constructed into pTT5 expression vector for a small amount of expression in CHO cells (Expi-CHOS: Gibco A29127), and purified with an Fc affinity column (AT Protein A Diamond Plus. No. AA402312). Antibody purity was analyzed by HPLC and determined by Nanodrop. High-throughput affinity assay was carried out for a small amount of antibodies by Caterra.

B1 and B2 are within 1.5-fold of each other in “ka” value: 158000 M⁻¹ s⁻¹ for the first, 168000 M⁻¹ s⁻¹ for the second.

B3 and B4 are within 1.5-fold of each other in “ka” value: 199000 M⁻¹ s⁻¹ for the first, 167000 M⁻¹ s⁻¹ for the second.

Going from B5 to B6, the “ka” value falls from 226000 M⁻¹ s⁻¹ to 139000 M⁻¹ s⁻¹ (1.6-fold).

B7 and B8 are within 1.5-fold of each other in “ka” value: 205000 M⁻¹ s⁻¹ for the first, 140000 M⁻¹ s⁻¹ for the second.

B9 and B10 are within 1.5-fold of each other in “ka” value: 191000 M⁻¹ s⁻¹ for the first, 249000 M⁻¹ s⁻¹ for the second.

For B11, the “ka” value was 183000 M⁻¹ s⁻¹.

B1 and B2 are within 1.5-fold of each other in “kd” value: 0.00302 s⁻¹ for the first, 0.00225 s⁻¹ for the second.

B3 and B4 are within 1.5-fold of each other in “kd” value: 0.00227 s⁻¹ for the first, 0.00209 s⁻¹ for the second.

First: B5
Second: B6
The “kd” value of the first is 73-fold higher: 0.00124 s⁻¹ for the first, 1.7e-05 s⁻¹ for the second.

Going from B7 to B8, the “kd” value falls from 0.00198 s⁻¹ to 1e-05 s⁻¹ (200-fold).

Compared with B9, B10 is 1.7-fold lower in “kd” value: 0.002 s⁻¹ for the first, 0.0012 s⁻¹ for the second.

With B11 the “kd” value was 1e-05 s⁻¹.
